Data: paper PMC6675122, “N-terminal β-strand underpins biochemical specialization of an ATG8 isoform” (PLoS Biology, 2019)
Entries after “also recorded” stand apart in the source; their conditions may differ.

Test system: ATG8
Test: in planta Co-IP, Vps4 with ATG8 (ATG8-2.2, ATG8-4, ATG8-4-S3)
Format: binding, Solanum tuberosum

B1: Vps4: potato vacuolar protein sorting 4; known as SKD1 in A. thaliana; ESCRT function (protein)
chain: MYSNFKEQAIEFVRQAVQEDNGGNYAKAFPLYMNALEYFKTHLKYEKNPKIKEAITQKFTEYLRRAEEIRAVLDEGGSGPGPNGGDAAVMAKPKTKPKDGEDGEDPEQSKLRAGLNSAIVREKPNVKWNDVAGLESAKQALQEAVILPVKFPQFFTGKRRPWRAFLLYGPPGTGKSYLAKAVATEAESTFFSVSSSDLVSKWMGESEKLVSNLFQMARESAPSIIFVDEIDSLCGQRGEGNESEASRRIKTELLVQMQGVGHNDDKVLVLAATNTPYALDQAIRRRFDKRIYIPLPDLKARQHMFKVHLGDTPHNLSESDFEDLARKTEGFSGSDVSVCVKDVLFEPVRKTQDAVFFTQTSNGTWIPCGPKQQGAVQTTMQELDAKGLASQIIPPPITKTDFDKVLARQRPTVSKSDLEVHDRFTKEFGEEG
dependence of Vps4 binding on the ATG8 first β-strand (Co-IP, ATG8-2.2, ATG8-4 and ATG8-4-S3): the role of the N-terminal β-strand region in conferring binding to AIM-containing proteins was confirmed; also recorded: The ATG8 region surrounding the first β-strand is responsible for discriminatory binding to potato Vps4 | interaction of Vps4 with ATG8 (Vps4:3xMyc co-expressed with GFP:ATG8 in N. benthamiana, anti-GFP IP, immunoblot): direct interaction between Vps4 and ATG8
